The record followed here is patent CN117843805A (BEILAI PHARMACEUTICAL CO LTD, dated 2024).

As a reminder, the EC50 is the concentration that produces a half-maximal response. Low readings indicate a more potent agent, high ones a less potent agent. As usually defined, the Kd is the constant that tells how readily two partners part at equilibrium.

For assay [1], the target named is T1, Human IL-17A重组蛋白 (IL-17A-His) (human, UniProt Q16552 24-155, biotinylated (NHS-biotin) in the ELISA of paragraph 263).
T1 construct: also called IL-17A抗原蛋白; IL-17抗原
T1 sequence: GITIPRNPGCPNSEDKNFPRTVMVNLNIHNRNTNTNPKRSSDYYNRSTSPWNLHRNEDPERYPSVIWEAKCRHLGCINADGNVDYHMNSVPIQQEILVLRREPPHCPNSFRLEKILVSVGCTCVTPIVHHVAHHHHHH
The assay can be described thus: ELISA, antibody coated at 2 ug/mL, Biotin-IL-17A-His titrated from 10 ug/mL, HRP-Streptavidin. Background: ELISA stands for enzyme-linked immunosorbent assay.

Assay [2] addresses T1, Human IL-17A重组蛋白 (IL-17A-His). Kind of assay: cell-based or functional assay.
For assay [3] the target is unchanged. The assay can be described thus: BLI (ForteBio OCTET R2), IL-17A-His on the sensor, antibody 50-3.13 nM, 25℃. (In BLI a coated tip is dipped into the sample, and binding shifts an interference pattern.)

B1: Ixekizumab (antibody, human IgG4 S228P, kappa, V domains shown)
VH: QVQLVQSGAEVKKPGSSVKVSCKASGYSFTDYHIHWVRQAPGQGLEWMGVINPMYGTTDYNQRFKGRVTITADESTSTAYMELSSLRSEDTAVYYCARYDYFTGTGVYWGQGTLVTVSS
VL: DIVMTQTPLSLSVTPGQPASISCRSSRSLVHSRGNTYLHWYLQKPGQSPQLLIYKVSNRFIGVPDRFSGSGSGTDFTLKISRVEAEDVGVYYCSQSTHLPFTFGQGTKLEIKR
notes: Made in house in 293F cells from synthesised variable regions cloned into hIgG4 and hIgKc vectors; Protein A purified; also called 阳性对照抗体Ixekizumab; 阳性抗体
The molecule B1 came in with an EC50 in assay [1] of 10.1 µg/mL. The “IC50 of blocking Human IL-17A activation of 293F-IL-17RA-IL-17Rc-ACT1-NFκB-Luc (luciferase activity)” value in assay [2] came out at 1.36 µg/mL. The same molecule displayed a Kd in assay [3] of 0.391 nM.
